Source: a protein production outcome set (Wang et al. 2014)

Assay: label from the status in PepcDB records
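Note: failed if final PepcDB status was selected cloned or expressed and not failed if soluble or beyond.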

Sequence	protein production
QSVHDIEKTLIRIGVVQWQMRAMNDLEDLLDQAEFFISSLANYKADFALFPEFFNAPLMGLQNDQNSVEAIRFLASFTEEIKNRFSQMAVTYNINIIAGSMPLIEDGKLYNVAYLLQRDGEINAQYKIHITPHEQKDWVIDGGDNVQVFETDAGKVGILICYDSEFPELGRMLAEQGAQIIFVPFWTDTKNGYQRVRICSQSRAIENECYVAIGGSVGNLPRVDNVDIQYAQSAVFSPSDIYFPHDATLTEASANTEMIIFADVDLTKLKQLNTEGSVTNLRHRRLDLYGAFTTPKE	failed
QTASGASYVLREIGADDTATAFAALSVLRSSLTDIGRFTEQINKIQRPQGYRLLGIFEECKHNAVAVCGFREACTLAGGRHIHIDDIVTLPQSRRKGYASRLLEEVRKIGAETGVTKIHLNVHVNHDRTDAHRLYFKNGFEICAYHFRCDPK	failed
QTDPKKPTTDEGTASSEVNATEEMSTLVNYIEPVKFKSFEAARKRNKCFEMSSFVETKAMEQLTKSPMEFVEYNKQQLSRIYPKGTRVDSSNYMPQLFWNVGCQLVALNFQTLDVAMQLNAGVFEYNGRSGYLLKPEFMRRPDKSFDPFTEVIVDGIVANALRVKVISGQFLSDRKVGIYVEVDMFGLPVDTRRKYRTRTSQGNSFNPVWDEEPFDFPKVVLPTLASLRIAAFEEGGKFVGHRILPVSAIRSGYHYVCLRNEANQPLCLPALLIYTEASDYIPDDHQDYAEALINPIKHVSLMDQRARQLAALIGESEAQAGQETCQDTQSQQLGSQPSSNPTPSPLD	failed
RETLDNLSEAVAVFGSNGCAQLFNPPFARMWNLSAEALQSQPHIEAIEEWCRPLFDDDVFWQALRGAITGIDDRRHVLLKIERKDGSVLACKTMPLPDGATMLTFQDITDTENVERALRERNEALETADRIKIDFVHHVSYELRSPLTTIIGFA	failed
RFRVTPYHGNLLGDHERLAAFREAISSRARGLTYDLGAGSGILSFFASEYADRVIAIERDPKIAACAGENLSGLDNVSVVNEDALHYEFSAADTIICEMLDTALIDEEQVPVLRRALKFLRNDGTVIPQAVF	failed
RGIAVYVEHHNGNIHPVTYELIGKAREMASKIKQPVYCVFVGKDIKDKCSNLISYGVDEVFVYDEDEFKDFRIEPYSKAIENFIDKIKPTIVLVGGTTLGRSLAPRLAARFRTGLTADCTILDIQSNTDLDQIRPAFGGNIMAHINTPNNRPQFATVRYKIFSAPEKIENTTGKITLCKVEKKELKSKIKVLSVKEKNKEVG	failed
RGLALCREHYLDWFVKETERAIRRHRMLLPGERVLVAVSGGKDSLALWDVLSRLGYQAVGLHIELGIGEYSKRSLEVTQAFARERGLELLVVDLKEAYGFGVPELARLSGRVACSACGLSKRYIINQVAVEEGFRVVATGHNLDDEAAVLFGNLLNPQEETLSRQGPVLPEKPGLAARVKPFYRFSEREVLSYTLLRGIRYLHEEC	failed
RIVSTLNERLAGLTLHEIRDTYEERLDDLPDETGLIALVLDEASILFSEPDEGRLQFDGTQNILSQPEFQEPDDMRHLIETIEDEDRIVQVIENLFEANPDAVGQAVVRIGSETDQEEMDAYSIVLSPYQLGDTVGSLGVIGPKRMDYGRAVALVENMAAVVNRPADDETTD	failed
RKEDHARLRALNGLLYKALTDLLCTPEVSQELYDLNVELSKVSLTPDFSACRAYWKTTLSAEQNAHMEAVLQRSAAHMRHLLMSQQTLRNVPPIVFVQDKGNAALAELDQLLAVAD	not failed
RKTEKVVNNGIPWFDDRGEIVNAHGACIVEENGRYYLFGEYKSDKSNAFPGFSCYSSDDLVNWKFERVVLPMQSSGILGPDRVGERVKVMKCPSTGEYVMYMHADDMNYKDPHIGYATCSTIAGEYKLHGPLLYEGKPIRRWDMGTYQDTDGTGYLLLHGGIVYRLSKDYRTAEEKVVSGVGGSHGESPAMFKKDGTYFFLFSNLTSWEKNDNFYFTAPSVKGPWTRQGLFAPEGSLTYNSQTTFVFPLKCGEDTIPMFMGDRWSYPHQASAATYVWMPMQVDGTKLSIPEYWPSWDVDKLKPVNPLRKGKTVDLKKITFSKEADWKVEEGRISSNVKGSTLSIPFTGSCVAVMGETNCHSGYARMNILDKKGEKIYSSLVDFYSKANDHATRFKTPQLAEGEYTLVIEVTGISPTWTDKTKRIYGSDDCFVTITDIVKL	not failed
RNRFKWGPASQQILYQAYDRQKNPSKEEREALVEECNRAECLQRGVSPSKAHGLGSNLVTEVRVYNWFANRRKEEAFRQKLAMDAYSSN	not failed
RPKTGFQMWLEENRSNILSDNPDFSDEADIIKEGMIRFRVLSTEERKVWANKAKGETASEGTEAKKRK	not failed
RQKLLADFGEFALSNDNLADILTEACRLVGNALGTQRANVLEIEPSKRSLFVRAGVGLDDGIVGKLRLPMREIASERFSPDGSPLDIIHDVHTEPQYDLAAFMEVAGVVALVNVPILLPGRTLYGLLQVESSEPREFSQDDVEFLRTYSTILGPVIDRLNKVRALRDAEERFRLIVEAAR	failed
RQQSMAERHDYDQKEEKTDGGELVSSYMCSPETAAEEFEISKKLYAQLTGRSQSEKHDIIMYRIIQSFKPDEVSPEEAHKIGCELAMKFTGGQHQFVVATHTDKRHIHTHIEFNSTNLNCDAKFQNVKNSAFILRRMNDELCRAHGLSVIENPKKKARPQKEMAAAQYGVSHKKQLQQAIDRLLPECNHYEEFLAKMRAEGYEVVDGKNPGFRLPGWDRPTRVNRLG	not failed
RRRAPLARLRQAIQRCEFFVCYQPIVSLSDGRCVGAEALVRWRQQDGTLILPDQFIPLAERSGLILPITDQVIAASMRELGPLLVADRSLHIAINVSVKDIESGRLLDVLALALQDTGLYRKQLWIEATERSFMDARAAREHIVRLREAGYAVVIDDFGTGYSNLQYLQQLPLDALKIDKSFIDTVGRDVTNTAVASHIIDIAKELGMRTIAEGVEREEQLVYLRARGVDMAQGWLFSSPLSVAEFVDYLSHNRSMHPDD	failed
RSPPSNLALASETPDSLQVSWTPPLGRVLHYWLTYAPASGLGPEKSVSVPGARSHVTLPDLQAATKYRVLVSAIYAAGRSEAVSATGQTACP	not failed
RTAVMIMNGNQLVGFFCLHVGQGPLSYGETEVNTILLRALSVDDRFKHQRVASDALAELPRYLASHYPMIQTILLAVNHANHVAQHLY	failed
RTDVIVVGVLDWKKGNLSFVSIPRDLMIEGKKINAIYNTYGMEKLFQIIESLLGQKPDSYVIFNYEAFKILVDELGPIEVIPNEVMFYEDLSQNLVIDFKPGVPYKLNGEQLLAYIRYRKDSMGDLARIERQKDVLKKLLSKALS	failed
RTEAGDAYYSKFANNTPLPALMVSRKKFGSSYVYDKSYKTWDVPIAEQMEQKAKINIFAVAEYTDTQKIKVTVKGKILEGNTLPKSMVQVYLLEDKLIAPQVDGNTTVENYEHNHVLRGAVNGIWGEEFVNLKDYLYTYAVEPLSGMSFVAENYSIVAFVYDVQTFEVYDVVHVKINPQSDGK	not failed
RTFAVAAVAALVLPLSACGSGGDGGSSTDASGKVEGDITFQTWNLRANFKDYFEGLIADFEKKYPDTHVKWVDQPGEGYADKISADAAGGTLPDVVNVSPDLVAPLAKAGLALDLDKAAGQYEKEYLEGAWASHRIPGMDGTYAFPWYLNTGPLFYNKSLFEKAGLDPEQPPRTYDEVFDAALKIADKTDGEVATLANVPTIEDFGRYGVPLMNKEGTAFAFNDAKGVQLLARYKELYDAKALDPQALTATPESSGKKFLTGAVAMNPGSALDLANFKKQAPNLYENIGITDQITSTGHVNMYVMGLMVNAQSQRKPAAVAFAHYVTDAAHQMSFAKQVAIFPSTAGSLDDPYFTKEDGTDETRVRVAAAKSLKTAVNYTPVLFSEQMKTELRNEVAKALQGKQSPKEALDNAVKACDRLLQ	failed
RTKDQYYELRDFALGTSVRIVVSSQKINPRTIAEAILEDMKRITYKFSFTDERSVVKKINDHPNEWVEVDEETYSLIKAACAFAELTDGAFDPTVGRLLELWGFTGNYENLRVPSREEIEEALKHTGYKNVLFDDKNMRVMVKNGVKIDLGGIAKGYALDRARQIALSFDENATGFVEAGGDVRIIGPKFGKYPWVIGVKDPRGDDVIDYIYLKSGAVATSGDYERYFVVDGVRYHHILDPSTGYPARGVWSVTIIAEDATTADALSTAGFVMAGKDWRKVVLDFPNMGAHLLIVLEGGAIERSETFKLFERE	not failed
RVLEFHPLGSGLAMTEFVVGSRLMGKTLSDLALCKVEGVQVLGFKRGPEIIKAPDMSTTLEIGDLIIVVGPQDKLANKLKSL	failed
RYSDAHLHYVDFFQESEGMPALIKAMDAAGVEQSMISGIPVAKKWHEDEPKRPRYYAGDDADAYWYSATDTYVAAALQQLPSDQRKRFHPFLSGFNPVDKNAVSHIERMLDLYPGLWQGIGEVFTRHDDLTALTSGDTPRANNEAMTRIYHLAAERDLPVLLHSNITSKRERNPLYLAEIEEPLRNHPHTRFIWAHAGSSMEIHRHQKQMDFLLPVLTRLLEDYPNLYVDLSWSVLQPYLLDEQGAPRKEWLALVEKYPERFMLGSDVVGRFGSLGEQMHGFKPFLDALPESVAHKVARENFLAVLPKAR	failed
SAELGLNEHHQNEVINYMRFARSKRGLRLKTVDSCFQDLKESRLVEDTFTIDEVSEVLNGLQAVVHSEVESELINTAYTNVLLLRQLFAQAEKWYLKLQTDISELENRELLEQVAEFEKAEITSSNKKPILDVTKPKLAPLNEGGTAELLNKEILRLQEENEKLKSRLKTIEIQATNALDEKSKLEKALQDLQLDQGNQKDFIKAQDLSNLENTVAALKSEFQKTLNDKTENQKSLEENLATAKHDLLRVQEQLHMAEKELEKKFQQTAAYRNMKEILTKKNDQIKDLRKRLAQYEPED	not failed
SAGTGVVAVYGEGAMTETKQKSPFSVKVGLAQMLRGGVIMDVVNAEQARIAEEAGACAVMALERVPADIRAQGGVARMSDPEMIKEIKNAVTIPVMAKARIGHFVEAQILEAIGVDYVDESEVLTLADEDNHINKHNFKIPFVCGCRNLGEALRRIREGAAMIRTKGEAGTGNVVEAVRHVRSVNGAIRLLRSMDDDEVFTYAKKIAAPYDLVVQTKELGRLPVVQFAAGGVATPADAALMMQLGCDGVFVGSGVFKSGDPVKRAKAIVQAVTNYRDAAVLAEVSCGLGEAMVGLNLDDKVERFASRSE	not failed
SATHGQTCARPMCIPPSYADLGKAARDIFNKGFGFGLVKLDVKTKSCSGVEFSTSGSSNTDTGKVTGTLETKYKWCEYGLTFTEKWNTDNTLGTEIAIEDQICQGLKLTFDTTFSPNTGKKSGKIKSSYKRECINLGCDVDFDFAGPAIHGSAVFGYEGWLAGYQMTFDSAKSKLTRNNFAVGYRTGDFQLHTNVNDGTEFGGSIYQKVCEDLDTSVNLAWTSGTNCTRFGIAAKYQLDPTASISAKVNNSSLIGVGYTQTLRPGVKLTLSALVDGKSINAGGHKVGLALELEA	not failed
SAVLVALSLAGLPTDRFFFDGFLPSKQGARRARLGELAAIDATLVLFEAGSRIQNSVHDLADLLGATREAAICRELTKLHQEVRRATLAELAAQADTMETRGEFVVVIAP	failed
SDDINQKVAEQLAQKAQSSSLGYDIVESLTVEVGPRLAGSEQDKVAVDWAIAKLQSLGFDRVYKEPVTVPVWRRGIAKASILSPFPQPLVVTALGGSIATPAQGLSATIVRFDTLQDLQNAEAGSLNDKIAFIDAKTERHRDGKGYGQTASGRSRGAVAAAEKGAVGIIIRSIGTDHDRMAHTGMMRYEEGVTAIPAAAISNPDADLINAMLKRDKEVVISLELGSERRGETTSYNVIAEVKGSTKADEIVLIGAHLDSWDEGTGAIDDGAGVAIVTAAAKHILDLPQKPERTIRVVLYAAEELGLLGGKTYAKEHEAELEKHYIAAESDFGAGPIYQIDWRVADTAHSPVINAMKVAEPLGVAAGNNKASGGPDVSMLPALGVPVASLRQDGSDYFDYHHTPNDTLDKINPEALAQNVAVYAQFAWVMANSKVELRPLPPKE	not failed
